# Laboratory results from publication PMC3409459, “Absorption, distribution, metabolism and excretion of peginesatide, a novel erythropoiesis-stimulating agent, in rats” (Xenobiotica; the Fate of Foreign Compounds in Biological …, 2011).
# Like-named read-outs stand apart in the source and are kept apart here.
# Legend:
# [1] = cited from earlier work
# Protocol: Erythropoietin is deficient in patients with CKD-associated anemia. Administration of ESAs, such as peginesatide, leads to activation of the appropriate signaling at the EPO receptor ([Fan et al. 2006]). […] The principal findings in the single and repeat dose toxicity studies are primarily attributed to the pharmacological effects of peginesatide and secondary sequelae when an ESA is administered to an initially nor ...
# [2] = In vivo metabolite profiling, plasma and tissues at 14 days; set-up: species or system male Sprague-Dawley rats; details: single IV 5 mg/kg [^14C]-peginesatide; HPLC fractions/LSC; n = 3
# [3] = ref Fan et al. 2006; cited from earlier work
# Protocol: Multiple clearance mechanisms may be involved with peginesatide as clearance involves glomerular filtration; a presumably non-saturable elimination. […] High concentrations of radioactivity were also measured in the liver. In addition, negligible excretion (<0.1%) of the radiolabel was d ...
# [4] = set-up: species or system male Sprague-Dawley rats; details: rat, in vivo, iv
# Protocol: The metabolite profiling in the biological samples from rats dosed with [^14C]-peginesatide was performed by high-performance liquid chromatography (HPLC). The radiolabeled materials in the samples of plasma and aqueous homoge-nates of tissues and feces were extracted with five volumes of methanol containing 0.1% of trifluoroacetic acid (TFA), mixed and centrifuged at 1500g at 4°C for l0 min to obtain supernatant. A portion of the supernatant was counted to estimate the extraction recovery of [^14C]-peginesatide and its related compounds in the biological samples. The rest of the supernatant was evaporated to dryness under a nitrogen gas stream. The residue was re-dissolved in a small volume of equal parts mobile phase [MP(A)] and B [MP(B)] for chromatographic analysis. The HPLC system (Simadzu, Kyoto, Japan) consisted of a LC-lOADvp pump, a CTO-lOACvp column oven, an SPD-lOAvp UV detector, and an SCL-lOAvp system controller. […] The flow rate was 0.5mL/min, and the peaks were monitored by a UV absorption detector at 215 run. […] The effluentwas collected into 0.5mL size fractions, followed by counting of the radioactivity (LSC). […]
# Noncompartmental PK parameters for peginesatide and metabolites were generated using WinNonlin ver. […] Apparent terminal half-life (t1/2) was calculated as In2/λz. The AUC0-inf was calculated as the sum of AUC0-t and Cobs/λz, where Cobs, was the actual concentration at the time of the last quantifiable concentration. […] The mean residence time (MRT) was calculated as the ratio of AUMC0-inf/AUC0-inf, where AUMC0-inf was the area under the first moment curve from the time zero to infinity. […]
# The plasma metabolic profile of [^14C]-peginesatide was determined by the HPLC analysis described above and measurement of radioactivity using LSC. […] The moieties detected were designated as peginesatide or mono-PEG (peginesatide with one PEG chain), with the remaining radioactivity designated as “Other” The classification of Other is anticipated to encompass smaller PEGylated-peptide and peptide/ amino acid components. […]
# [5] = ref Im et al. 2010, cited from earlier work
# Excerpt: The totality of the metabolism data is consistent with in vitro studies conducted in liver and kidney micro-somes and S9 fractions from rats, monkeys, and human donors ([Im et al. 2010]).
# [6] = Radioactivity in plasma, skin and eyes of pigmented vs albino rats (affinity for melanin); assay type: in vivo, male Long Evans (pigmented) rats; details: single IV 5 mg·kg^−1 [^14C]-peginesatide; through 60 days; LSC; n=3 per time point
# Protocol: Male Sprague-Dawley (albino) rats (n = 21; three per time point) were administered a single IV dose of 5 mg·kg^−1 [^14C]-peginesatide (27.5 μCi/kg) and tissue concentrations of radioactivity determined at 0.25, 6, and 24 h, and 7,14,30 and 60 days following dosing. Similarly, male Long Evans (pigmented) rats (n = 21; three per time point) were administered a single IV dose of 5 mg-kg^−1 [^14C]-peginesatide and plasma, skin, and eye concentrations of radioactivity were measured at the various time points through 60 days after dosing. At each time point, blood was collected, the animals sacrificed, and tissues excised. Tissues collected from the Sprague-Dawley rats included blood, plasma, adrenals, bone marrow, brain, eyes, fat, femur, Harderian glands, heart, hypophysis, intestine, kidneys, lungs, liver, pancreas, skeletal muscle, skin, spinal cord, spleen, stomach, submaxillary glands, testes, thymus, thyroid gland, and urinary bladder. Plasma, eyes, non-pigmented skin, and pigmented skin were collected from Long Evans rats. All tissue samples were measured for radioactivity by LSC following combustion. […] The concentration of radioactivity in the blood, plasma, and tissues was calculated and expressed as ug equiv·g^-1 or mLbased on the LSC counts and the specific activity of the dosing solution.
# [7] = Mass balance study (urine, feces, expired air, carcass); details: initial 3 days after dosing; single IV 5 mg·kg^−1
# Excerpt: Radioactivity in diluted formulations, plasma, urine, and expired air (CO2-absorbent solution) was quantitated by mixingwith liquid scintillator Hionic-Fluor (PerkinElmer Life and Analytical Sciences) followed by liquid scintillation counting (LSC). Solid samples were homogenized (10 or 20% w/v in distilled water) before combustion in a sample oxidizer (A030701; PerkinElmer Life and Analytical Sciences) with Carbo-Sorb E (PerkinElmer Life and Analytical Sciences) as a carbon dioxide absorbent and Permafluor E^+ (PerkinElmer Life and Analytical Sciences) as a liquid scintillator. Total captured radioactivity was subsequently measured via LSC.
# Urine and feces were collected at 24-h intervals up to 14 days after dosing and expired air was collected up to 24 h after dosing. The levels of radioactivity in urine and expired air were measured by LSC and in feces by LSC following combustion. After the final collection of excreta at 2 weeks, the animals were sacrificed and the carcasses were dissolved in potassium hydroxide/distilled water/ethanol (3:3:7, w/v/v), and examined for residual radioactivity by LSC.
substance,measurement,setting,value
Peginesatide,reticulocytes and hemoglobin levels,"[1]; single IV administration in humans, ref Stead et al. 2006",dose-dependent increases in reticulocytes and hemoglobin levels
same,reticulocytes and hemoglobin levels,"[1]; single IV administration in rats, ref Fan et al. 2006",dose-dependent increases in reticulocytes and hemoglobin levels
same,"Day 14 concentration, Kidneys",[2],2.64 μg equiv·g^−1 or mL
same,clearance in a rat chronic renal insufficiency model compared to a rat with normal renal function,[3],twofold lower clearance
same,Tmax,[4],0.25 h
same,t½α,[4],29.1 h
same,t½β,[4],110 h
same,metabolites after incubation with microsomes (metabolic stability in vitro),[5]; human donor liver and kidney microsomes and S9 fractions,no metabolites were observed
same,metabolites after incubation with microsomes (metabolic stability in vitro),[5]; monkey liver and kidney microsomes and S9 fractions,no metabolites were observed
same,metabolites after incubation with microsomes (metabolic stability in vitro),[5]; rat liver and kidney microsomes and S9 fractions,no metabolites were observed
same,"association with melanin (kinetics in plasma, skin and eyes of pigmented vs non-pigmented rats)",[6],neither peginesatide nor the other radioactive components associated with melanin
same,fecal recovery of the total radioactive dose,[7],5 % of the total radioactive dose
same,urinary recovery of the total radioactive dose,[7],23 % of the total radioactive dose
